Experimental data reported in the supplement of paper PMC9170038.

Tested on: MS2 coat protein
Assay: apparent KD of MS2 coat protein; higher = weaker reporter binding
Conditions: Eterna round: R107
Experimental: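 RNA-MaP round R107: designed RNA switches with theophylline, tryptophan, arginine or FMN aptamers are transcribed on-chip within common flanks. They are titrated with SNAP-549-labelled MS2 coat protein in RNA-MaP buffer (100 mM Tris pH 7.5, 80 mM KCl, 4 mM MgCl2), without ligand or with the indicated ligand. Median apparent KD per design.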

[1] = input ligand: theophylline 20 uM
[2] = input ligand: tryptophan 2.4 mM
[3] = input ligand: theophylline 2 mM

Row | Sequence | apparent KD of MS2 coat protein (input ligand: arginine 13.2 mM) [nM] | apparent KD of MS2 coat protein [1] [nM] | apparent KD of MS2 coat protein [2] [nM] | apparent KD of MS2 coat protein (input ligand: none) [nM] | apparent KD of MS2 coat protein [3] [nM]
1 | ACGACGCAUAGUGAUACCAGUAGAACAUGAGGAUCACCCAUGUCAGAUAUGUUCUAAUACUGCCCUUGGCAGCACUAUGCGUCAG [SSTheo B #4] | 144 | 344 | 299 |  | 
2 | AACUGGACCAGUGAUACCAGAGACAUGAGGAUCACCCAUGUACAUGAGGAUCACCCAUGUCUCCCUUGGCAGCACAGCAGGGAGC [Exclusion Theophylline B Gf12] | 66 | 109 | 119 | 117 | 720
3 | GCUGCAGCUACGGCCGCCACUGUUACGUGAGACAUGAGGAUCACCCAUGUUGAUGUUUUACGGUAUAGGACCGGGUAGUUGUAGU [E 1.0] | 9.08 | 11.8 |  |  | 10.3
4 | GAUGAACUAUUUGAUACCAGACUACAUGAGGAUCACCCAUGUGUGUUAAUUUUUCAGUCAGUCCCUUGGCAGCAAAUAGUUUAUC [XTheo B #2] | 42.2 | 70.7 | 32.1 |  | 
5 | GAGCUGAUGUAGAGCUUAUAUAAGAGAGAUACCAGUACAGAAAUGUACCCUUGGCAGCUCAACUUUACAUGAGGAUCACCCAUGU [Ex Theophylline A 20] | 12.3 | 16 | 18.1 | 12.6 | 23.6
6 | UGUAUGGACUGAAGGAGCGGGUUGAUAACUUGAGGAUCACCCAGGUAAAAGGCGAAAGCCGCCCAGGUAGGUCGCAGUCCAUACU | 40.2 | 54.9 | 49.2 | 45.6 | 61.7
7 | ACAUGAGGAUCACCCAUGUUCCUCAUUGAUACCAGUGAAUUUAGACGCCCUUGGCAGCGAGUUUUUUUAGAAGAAGUUUUUUUUU [6.F] | 158 | 659 | 929 |  | 
8 | ACCUGUACGAAAAGUGCAGGACAUGGAAAUCGAGGACCGGUACGGCCGCCACUCGUUGAAAACAAGUGGAUCACCCUUGUCCAUG [TrypAS 3 #AlternativeMS2 #Zipper #StaticStem] | 35.3 | 764 | 1070 | 417 | 872
9 | ACAUGAGUGGAUAAUAAAUAAGAAGGCGAAGGAGCGUGAAGAAUCACAGGUAGGUCGCGCAAAAUACAUGAGGAUCACCCAUGUU [JR_Nu_ExcArginiA_Sub031] | 22.5 | 35.3 | 25.9 | 27.6 | 29.8
10 | GGUUACUCUACGGCCGCCACUGUAAUGUAAAGAUACCUGUACAUGACAUGAGGAUCACCCAUGUGCAGGACCGGGUAGUGUAACC [Tryptophan B 19] | 50.6 | 93.6 | 19.8 | 61.6 | 70
11 | CUCCGAGGCUAUACUAUCCGCCUCUGUGAUACCAGAAUACCUAUAUUCCCUUGGCAGCAUCACAUGAGGAUCACCCAUGUGCCAU [SSTheo A #13] | 14.5 | 16.8 | 13.9 |  | 
12 | CUCGGUUGAUCCUAGCUGCCGAGAGGUGAUACCAGCAUCGAAAGAUGCCCUUGGCAGCACCAACAUGAGGAUCACCCAUGUAAUA [(MT)''-(M)'-(T')-(Theo)-(Ms2)_Design1/22_5] | 30.2 | 156 | 30.1 |  | 
13 | UAGACGGCCGGAAGGAGCGGUACAUGAGGAUCACCCAUGUAUCCCUGGGCAUCCGUAGUGUGCCAGGUAGGUCGCCGGUUGCGGG [XArg-B21] | 15.3 | 25.2 | 15.9 | 15.5 | 18.2
14 | GGACCAUGGCGCGAUACCAGCUUGAGUGUACUGGCCAGGUACAUGAGGAUCACCCAUGUAAGCCCUUGGCAGCGCGCCAUGGUCC [#1 Exclusion - Theophylline B Attempt #24 (HarryS)] | 10.4 | 16.1 | 10.7 | 10.3 | 36.5
15 | ACCGAAAGCUCACAUGAGGAUCACCCAUGUCGAGGACCGGUACGGCCGCCACUCGGCAAAUAUAAGGGUGGACGCGUCUCUGCGU [Soramasoso] | 35.4 | 58.8 |  |  | 62.1
16 | UGAGUUAGACAAAAGUCUAGCUCUGGUGAAGGAGCGUCCGAAAGGACAGGUAGGUCGCACCACCUGAGGAUCACCCGGGUUCCUA [ArgAS 13 #OpenEnded #AlternativeMS2] | 360 | 544 | 115 | 167 | 991
17 | CAGCCUGAUUGGUAAAUCCCUCAUCGUGAUACCAGUCGAGUGAUCGACCCUUGGCAGCACAUGAGGAUCACCCAUGUGCGCGUAA [Raisener] | 22 | 34.9 | 24 |  | 
18 | ACAUGUUGGUGGUAUCUACGAAGGCGGAAACGAGGACCGGUACGGCCGCCACUCGGCGACAUGAGGAUCACCCAUGUGGUUAAGA [Exclusion - Tryptophan A (Freestyle 6)] | 21.5 | 118 |  |  | 131
19 | GACCUUAUCUGAAGGAGCGAGGUAAAUAGGGUUGAGCAUACAUGAGGAUCACCCAUGUGGCCUCAGGUAGGUCGCAGAUAAGACA [Exclusion Arginine B GF29] | 149 | 308 | 137 | 352 | 63.4

Row | Sequence | apparent KD of MS2 coat protein (input ligand: arginine 13.2 mM) [nM] | apparent KD of MS2 coat protein [1] [nM] | apparent KD of MS2 coat protein [2] [nM] | apparent KD of MS2 coat protein (input ligand: none) [nM] | apparent KD of MS2 coat protein [3] [nM]
20 | GCACCAGGUACGGAUACCAGCUGCCACAGUUACAUGAGGAUCACCCAUGUGAAAACGUGUAGCCCUUGGCAGCUGUACCUGGUGC [SSThB NP+V+V2 #8 Same Structure] | 198 | 186 | 398 | 459 | 14.6
21 | AUACAUGAGGAUCACCCAUGUAUAGAUGAAGGAGCGACCAGAGGGUCAGGUAGGUCGCAUCACAUGAGGAUCACCCAUGUACUUA [DOUBLE!!! :-D #9] | 27.1 | 43.7 | 41.5 | 42.1 | 42.7
22 | GGUCGCCUACAUGGGUAGGCGAUUUUGGAAGGAGCGAGCGAGAGCUCAGGUAGGUCGCCAGCACAUGAGGAUCACCCAUGUUUUU [SSArg-A #25 Weakened 1st state] | 20.8 | 20.9 | 18.7 | 16.1 | 21.8
23 | AAAGAUUCCUGAACGCCGCAUACCGAUGAUACCAGCCAACGGAAAGGCCCUUGGCAGCAUUAAACAUGAGGAUCACCCAUGUCUA [theeternabot_exclusion_MS2_Theo_A_43] | 11.4 | 15 | 12.1 |  | 
24 | GGGCGCUAUCCCGCGAGGGAUAGCGUUCGACGAGGACCGGUACGGCCGCCACUCGAACGAGUGGUGACAUGAGGAUCACCCAUGU [Naa] | 28.7 | 56.7 | 49.7 | 53 | 59.4
25 | GGACUAACUGGAAGGAGCGACGCGCAGAAACUGCAAUUUCCUCCACACGAGGAUCACCCGUGUCAGGUAGGUCGCCAGUUAGUCG [ArgBX 29] | 19.1 | 24.7 | 18.6 | 16.7 | 21.1
26 | AUAACAUGAGGAUCACCCAUGUAUUGGUAACGAGGACCGGUACGGCCGCCACUCGAAUUUUGGUGGUAUAAUAUAUAUAUGAUUA [JR_SSTryptoA_Sub016] | 17.4 | 25.4 |  |  | 18.8
27 | CUACAUUUGUAGAAACCGGUCAACAAUAAUCGAGGACCGGUACGGCCGCCACUCGAUGUAAAAUAAACAUGAGGAUCACCCAUGU [Tryptophan A 12] | 13.5 | 20.6 |  |  | 20
28 | UUAUGCAGGUCGGCCGCCACUACACACAUGAGGAUCACCCAUGUAGUUACUGGGUGAAGUGGCAGUAGGACCGGGACCUGCAUAU [Brourdmod05] | 84.5 | 449 |  |  | 832
29 | CUGGCAGGAUUCUCAGCUGUCAGGGCUGAUACCAGCCACGAAAGUGGCCCUUGGCAGCAGCAAACAUGAGGAUCACCCAUGUAAU [(T)''-(M)'-(T)'-(Theo)-(Ms2)_Design1] | 279 | 364 | 208 | 470 | 46.3
30 | GCACCAGGUACGGAUACCAGCUAUAGGCACAGAGGAGGACAUGAGGAUCACCCAUGUGAUGGCCCUUGGCAGCUGUACCUGGUGC [EThB NP+V+V2 #3] | 8.89 | 23.2 | 10.6 | 12.9 | 171
31 | CGAUCUUUCGAAAGAAGGAUCGAUUCUGAUACCAGAGACGAAAGUCUCCCUUGGCAGCAGUGCCAACAUGAGGAUCACCCAUGUA [Theophylline A 8] | 26.4 | 26 | 23.6 |  | 
32 | GGCCCGGACUUGGAAUGGGUGUUUCCUUCACGAGGACCGGUACGGCCGCCACUCGAAGACAUGAGGAUCACCCAUGUAGUCGACC [Soleti] | 20.3 | 100 | 18.2 | 21.7 | 41.1
33 | UGUAUGUGAUCUGAUACCAGCUUUGAUAACCUGAGGAUCACCCUGGUAAAGGCGAAAGCCGGCCCUUGGCAGCAGAUCGCAUACU | 47.3 | 56.1 | 59.7 | 58.5 | 24.6
34 | CCCGUAAAGGCGGCCGCCACUGUAUGACAUGAGGAUCACCCAUGUAGGGAAAAUGCGAUGGUCGUCAGGACCGGGCCUCUGGCAU [theeternabot_exclusion_MS2_Trp_B_5] | 17.4 | 29.3 |  |  | 28.2
35 | CCUAUGACAUGAGGAUCACCCAUGUUGGAUACCAGCGCAUGAGGACGCCCUUGGCAGCCAAUGAACAUGAGGAUACAUGAGGAUC [Same State Theophylline A 4] | 30.2 | 69.7 | 41.6 |  | 
36 | UGUAACAUGAGGAUCACCCAUGUGAGUGAUACCAGAUUAGUAUUAGUCCCUUGGCAGCACAUUGGGCGAGUGUAUAGUCUAUGCG [Same State - Theophylline A (Freestyle 12)] | 106 | 197 | 135 |  | 
37 | GGAUAGGACACGGCCGCCACUACCUAGGAUACUAGCAACAUUUGGGUAUAUGAGGAUCACCCAUAUAGGACCGGGUGUCCUAUCG | 48.5 | 88 | 102 | 75.8 | 95.2
38 | UCAUGAGGAUCACCCAUGUGGCGUCUUGAUACCAGACGAGAAGUAGUCCCUUGGCAGCAAAUACAUGAGGAUCACCCAUGUAGGA [cccmullin2] | 24.5 | 38.2 | 43 |  | 
